The record followed here is patent US11242370B2, “Neuregulin-4 compounds and methods of use” (Eli Lilly and Company, priority 2019, dated 2022).

Assay [1] has as its target T1, HER4 receptor extracellular domain (ECD) (Homo sapiens, UniProt Q15303).
T1 construct: C-terminal His-tagged HER4 receptor extracellular domain (ECD) construct
T1 sequence (Q15303 26-651 limits assumed): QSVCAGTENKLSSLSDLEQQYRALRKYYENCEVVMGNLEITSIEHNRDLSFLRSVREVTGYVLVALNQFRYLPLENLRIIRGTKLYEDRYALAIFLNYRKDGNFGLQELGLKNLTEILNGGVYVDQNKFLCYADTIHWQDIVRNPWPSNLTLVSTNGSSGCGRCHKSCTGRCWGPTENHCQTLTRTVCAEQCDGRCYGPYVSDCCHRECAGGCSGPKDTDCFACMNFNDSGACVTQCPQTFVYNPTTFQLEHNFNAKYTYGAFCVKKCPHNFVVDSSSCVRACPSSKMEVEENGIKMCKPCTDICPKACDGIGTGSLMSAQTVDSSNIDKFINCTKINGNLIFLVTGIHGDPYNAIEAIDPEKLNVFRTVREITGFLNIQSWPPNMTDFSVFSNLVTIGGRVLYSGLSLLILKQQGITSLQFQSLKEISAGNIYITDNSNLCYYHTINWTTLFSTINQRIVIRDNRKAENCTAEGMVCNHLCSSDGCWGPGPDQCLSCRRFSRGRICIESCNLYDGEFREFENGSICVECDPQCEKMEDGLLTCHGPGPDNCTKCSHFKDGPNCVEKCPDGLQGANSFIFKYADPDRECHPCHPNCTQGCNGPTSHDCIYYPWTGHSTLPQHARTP
Kind of assay: HER4/NRG-Fc binding assay (ELISA) for screening NRG4 variants. The procedure:
A binding assay is utilized to perform high-throughput screening of NRG4 variant Fc fusion proteins to HER4 receptor, to identify affinity-driven variants with the potential to increase receptor activation and signaling. ELISA plates are coated with an anti-His tag antibody at 2 μg/ml in PBS to facilitate the standardized capture of a C-terminal His-tagged HER4 receptor extracellular domain (ECD) construct after blocking the plate with 1% BSA/PBS/0.1% Tween 20 (HER4 ECD at 5 μg/ml). Saturating amounts of unpurified NRG4-Fc variants in expression media (Starting at 10 μg/ml with serial dilutions in 1% BSA/PBS/0.1% Tween 20) are incubated with the captured receptor for 1 hour. After washing, bound variant NRG4-Fc is detected colorimetrically with an anti-human Fc-specific alkaline phosphatase secondary detection reagent to quantitate binding. Incubation times of variant binding to receptor or durations of the subsequent wash steps are varied to further identify binding variants driven by affinity on-rate and off-rate, respectively.

A further assay addresses T2, rat HER2/HER3 (Rattus norvegicus, UniProt Q62799).
T2 construct: expressed in transfected cells
The assay is described as follows: Rat HER2/HER3 phospho-ERK 1/2 assay, purified proteins, CHO-K1 cells. The assay is classed as cell-based. Conditions: phospho-ERK1/2. The procedure:
A cell based assay utilizing CHO-K1 cells overexpressing human or rat HER receptors is used to determine activity of NRG4 compounds. CHO-K1 cells (ATCC) are grown in DMEM-F12 3:1 with 5% FBS with 20 mM HEPES, 40 μg/mL L-Proline, lx antibiotics and were split 1:5 every 2-3 days with TripLE Express (Gibco). Cells are transfected with plasmid DNA encoding HER receptors in pairs (hHER2-3, hHER2-4, rHER2-3 and rHER2-4) with Fugene 6 (Promega) according to the manufacturer's instructions. […] Transfected cells are selected with Puromycin (12 ug/ml) and Hygromycin (1 mg/ml) for 3-4 weeks and clonal lines are obtained by limited dilution cloning into 96 well plates. Clonal lines are selected by appropriate gene expression of HER2, HER3 or HER4 by Taqman method. Lines with appropriate receptor expression are confirmed by NRG1 induced phospho-ERK 1/2 responses. Clones are grown up, harvested, aliquoted into cryovials and then frozen under liquid nitrogen for long-term storage.
A phospho-ERK1/2 activity assay is utilized with CHO-K1 cells overexpressing human or rat HER receptors to determine potencies and selectivity of purified NRG4 compounds. CHO-K1 cell lines expressing the human or rat HER receptors are cultured with selection medium (DMEM-F12 3:1 with 5% FBS with 20 mM HEPES, 40 μg/mL L-Proline, 1× antibiotics, 12 μg/mL puromycin, 1 mg/mL Hygromycin B). On Day −1 (the day before phospho-ERK1/2 assay), cells are washed once with PBS, detached with enzyme free cell dissociation solution (GIBCO cat #13151-014), and resuspended in plating medium (DMEM-F12 3:1 with 20 mM HEPES, lx antibiotics, 0.2% FBS). Cells are plated in a 96-well Poly-D-Lysine coated plate (BD cat #354640) at 10,000 cells per 0.1 mL per well. […] Then 7.5 μL donor beads are added and the plate is covered with aluminum foil and incubated at room temperature for 2 hours on plate shaker with 350 rpm agitation or at 4° C. for overnight (warm up plate at room temperature for 2 h before reading). Alpha signal data are obtained on an Envision instrument (Alpha Technology-compatible plate reader). […]

Where [2] appears, read: Dose # 1: Example 1 10.65, WT NRG1 10, WT NRG4 17 μg/mL.
The mark [3] stands for this setting: Dose # 2: Example 1 5.325, WT NRG1 5, WT NRG4 8.5 μg/mL.
[4] abbreviates: Dose # 3: Example 1 2.6625, WT NRG1 2.5, WT NRG4 4.25 μg/mL.
Setting [5] is: Dose # 4: Example 1 1.33125, WT NRG1 1.25, WT NRG4 2.125 μg/mL.
Setting [6] is: Dose # 5: Example 1 0.665625, WT NRG1 0.625, WT NRG4 1.0625 μg/mL.
Where [7] appears, read: Dose # 6: Example 1 0.332813, WT NRG1 0.3125, WT NRG4 0.53125 μg/mL.
The mark [8] stands for this setting: Dose # 7: Example 1 0.166406, WT NRG1 0.15625, WT NRG4 0.265625 μg/mL.
Where [9] appears, read: Dose # 8: Example 1 0.083203, WT NRG1 0.078125, WT NRG4 0.132813 μg/mL.
Setting [10] is: Dose # 9: Example 1 0.041602, WT NRG1 0.039063, WT NRG4 0.066406 μg/mL.
[11] abbreviates: Dose # 10: Example 1 0.020801, WT NRG1 0.019531, WT NRG4 0.033203 μg/mL.
[12] abbreviates: Dose # 11: Example 1 0.0104, WT NRG1 0.009766, WT NRG4 0.016602 μg/mL.
The mark [13] stands for this setting: Dose # 12: Example 1 0.0052, WT NRG1 0.004883, WT NRG4 0.008301 μg/mL.

Some results are limits rather than exact numbers.

T2 sequence (Q62799 20-1339): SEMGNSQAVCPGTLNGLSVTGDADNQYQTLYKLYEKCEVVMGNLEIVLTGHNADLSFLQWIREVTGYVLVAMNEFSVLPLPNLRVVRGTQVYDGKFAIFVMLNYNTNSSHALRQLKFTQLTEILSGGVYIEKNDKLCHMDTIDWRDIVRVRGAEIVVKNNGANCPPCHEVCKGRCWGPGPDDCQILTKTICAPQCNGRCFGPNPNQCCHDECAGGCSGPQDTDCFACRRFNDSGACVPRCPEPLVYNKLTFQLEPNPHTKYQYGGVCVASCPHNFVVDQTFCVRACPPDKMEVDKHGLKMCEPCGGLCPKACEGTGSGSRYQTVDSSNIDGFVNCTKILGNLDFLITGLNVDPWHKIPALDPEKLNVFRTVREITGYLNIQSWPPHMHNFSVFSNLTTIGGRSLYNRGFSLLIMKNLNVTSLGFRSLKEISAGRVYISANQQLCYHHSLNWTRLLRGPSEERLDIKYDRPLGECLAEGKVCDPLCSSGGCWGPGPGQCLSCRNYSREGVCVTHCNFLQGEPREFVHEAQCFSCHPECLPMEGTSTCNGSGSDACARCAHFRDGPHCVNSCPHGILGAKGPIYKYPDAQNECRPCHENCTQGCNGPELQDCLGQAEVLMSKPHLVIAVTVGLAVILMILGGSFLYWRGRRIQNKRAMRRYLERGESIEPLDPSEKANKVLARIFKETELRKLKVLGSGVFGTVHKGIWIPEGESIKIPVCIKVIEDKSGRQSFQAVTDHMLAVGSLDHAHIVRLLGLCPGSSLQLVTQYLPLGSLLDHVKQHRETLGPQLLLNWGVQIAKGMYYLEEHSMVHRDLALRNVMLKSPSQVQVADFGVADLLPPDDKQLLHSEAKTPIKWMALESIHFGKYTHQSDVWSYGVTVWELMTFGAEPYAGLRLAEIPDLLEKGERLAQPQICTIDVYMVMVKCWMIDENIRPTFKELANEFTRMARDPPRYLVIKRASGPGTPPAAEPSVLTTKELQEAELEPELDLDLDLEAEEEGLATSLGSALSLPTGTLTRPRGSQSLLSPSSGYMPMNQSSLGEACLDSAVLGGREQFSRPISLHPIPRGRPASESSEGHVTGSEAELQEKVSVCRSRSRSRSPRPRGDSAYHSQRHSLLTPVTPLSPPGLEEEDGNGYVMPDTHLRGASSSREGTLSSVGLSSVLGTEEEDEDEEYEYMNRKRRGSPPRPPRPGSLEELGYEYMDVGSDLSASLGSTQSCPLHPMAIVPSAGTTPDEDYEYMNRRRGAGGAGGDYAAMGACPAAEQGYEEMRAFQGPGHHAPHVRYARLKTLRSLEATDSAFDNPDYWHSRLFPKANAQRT
T2 sequence (P06494 23-1257 partner): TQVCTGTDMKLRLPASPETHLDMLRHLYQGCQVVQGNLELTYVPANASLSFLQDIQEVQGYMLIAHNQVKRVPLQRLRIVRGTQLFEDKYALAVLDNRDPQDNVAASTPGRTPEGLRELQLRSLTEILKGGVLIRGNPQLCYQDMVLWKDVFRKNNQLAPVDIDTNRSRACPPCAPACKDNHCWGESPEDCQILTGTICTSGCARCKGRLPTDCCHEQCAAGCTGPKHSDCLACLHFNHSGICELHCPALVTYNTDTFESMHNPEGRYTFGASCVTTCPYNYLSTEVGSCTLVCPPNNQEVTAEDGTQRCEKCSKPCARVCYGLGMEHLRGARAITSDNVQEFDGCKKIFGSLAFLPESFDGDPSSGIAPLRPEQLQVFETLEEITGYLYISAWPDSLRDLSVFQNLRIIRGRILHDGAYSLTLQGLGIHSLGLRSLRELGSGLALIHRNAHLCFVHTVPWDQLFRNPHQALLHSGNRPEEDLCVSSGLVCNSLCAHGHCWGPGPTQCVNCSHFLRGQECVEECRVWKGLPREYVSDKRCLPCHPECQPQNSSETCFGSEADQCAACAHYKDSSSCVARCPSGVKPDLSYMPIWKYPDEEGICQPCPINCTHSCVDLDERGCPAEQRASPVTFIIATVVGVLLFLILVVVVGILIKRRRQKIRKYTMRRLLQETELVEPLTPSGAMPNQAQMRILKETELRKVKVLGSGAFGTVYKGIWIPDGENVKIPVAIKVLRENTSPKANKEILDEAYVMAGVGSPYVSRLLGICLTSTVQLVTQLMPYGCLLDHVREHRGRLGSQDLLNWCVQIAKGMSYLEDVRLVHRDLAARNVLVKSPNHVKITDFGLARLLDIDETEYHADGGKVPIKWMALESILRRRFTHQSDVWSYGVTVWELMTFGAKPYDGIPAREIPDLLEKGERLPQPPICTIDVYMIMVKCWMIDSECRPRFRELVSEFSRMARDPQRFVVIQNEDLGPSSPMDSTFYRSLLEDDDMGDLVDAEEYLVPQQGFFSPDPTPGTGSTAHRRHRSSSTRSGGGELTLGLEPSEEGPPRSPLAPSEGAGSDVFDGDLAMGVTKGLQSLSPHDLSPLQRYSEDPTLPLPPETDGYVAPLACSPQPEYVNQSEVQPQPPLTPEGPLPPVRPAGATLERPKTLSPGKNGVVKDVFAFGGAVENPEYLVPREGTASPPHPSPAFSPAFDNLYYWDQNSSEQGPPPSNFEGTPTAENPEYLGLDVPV

“WT NRG1: wild type human NRG1; native peptide purchased from Reprokine in Tables 7-9; comparator in the screening assays of Tables 4 and 6”: the “O.D. 405, binding to HER4 extracellular domain” value (“O.D. 405, binding” for short) in assay [1] (setting [2]) amounted to 1.501; in assay [1] (setting [3]), 1.439; in assay [1] (setting [4]) it was 1.399; in assay [1] (setting [5]), 1.31; in assay [1] (setting [6]) it was 1.27; in assay [1] (setting [7]), 1.022. The “O.D. 405, binding” value in assay [1] (setting [8]) worked out at 0.8; in assay [1] (setting [9]), 0.514; in assay [1] (setting [10]), 0.316; in assay [1] (setting [11]) it was 0.179; in assay [1] (setting [12]), 0.114; in assay [1] (setting [13]) it was 0.084. For the same molecule, the EC50 with rat HER2/HER3 was found to be 32 ± 14 nM.
For the molecule “WT NRG4: wild type human NRG4 (SEQ ID NO:1); parental hFcNRG4 in screening (Tables 4-6), native peptide from Reprokine in Tables 7-9 (DHEEPCGPSHKSFCLNGGLCYVIPTIPSPFCRCVENYTGARCEEVFL; listed as Homo sapiens)”, the “O.D. 405, binding” value was determined as 0.651 in assay [1] (setting [2]); 0.597 in assay [1] (setting [3]); 0.485 in assay [1] (setting [4]); 0.347 in assay [1] (setting [5]); 0.224 in assay [1] (setting [6]); 0.154 in assay [1] (setting [7]). Also, the “O.D. 405, binding” value in assay [1] (setting [8]) is 0.111; in assay [1] (setting [9]) it was 0.088; in assay [1] (setting [10]), 0.071; in assay [1] (setting [11]), 0.07; in assay [1] (setting [12]) it was 0.066; in assay [1] (setting [13]), 0.066.

B1: Example 10: NRG4 D1G/V22Q/E44K, (GGGGS)3 linker, SEQ ID NO: 19, fused to IgG Fc dimer SEQ ID NO: 6 and 7 (protein)
chain 1: GGGGSGGGGSGGGGSGHEEPCGPSHKSFCLNGGLCYQIPTIPSPFCRCVENYTGARCEKVFL
chain 2: ECPPCPAPPVAGPSVFLFPPKPKDTLMISRTPEVTCVVVDVSHEDPEVQFNWYVDGVEVHNAKTKPREEQFNSTFRVVSVLTVVHQDWLNGKEYKCKVSNKGLPAPIEKTISKTKGQPREPQVYTLPPSREEMTKNQVSLWCLVKGFYPSDIAVEWESNGQPENNYKTTPPVLDSDGSFFLYSKLTVDKSRWQQGNVFSCSVMHEALHNHYTQKSLSLSPG
chain 3: ECPPCPAPPVAGPSVFLFPPKPKDTLMISRTPEVTCVVVDVSHEDPEVQFNWYVDGVEVHNAKTKPREEQFNSTFRVVSVLTVVHQDWLNGKEYKCKVSNKGLPAPIEKTISKTKGQPREPQVYTLPPSREEMTKNQVSLSCAVKGFYPSDIAVEWESNGQPENNYKTTPPVLDSDGSFFLVSKLTVDKSRWQQGNVFSCSVMHEALHNHYTQKSLSLSPG
In the case of B1, in the assay with rat HER2/HER3, the EC50 is > 100 nM.
